{"source": "paper PMC4880302", "binders": {"B1": {"name": "motavizumab Fab (affinity-matured variant of palivizumab, anti-RSV F site II/A) (Fab, V domains shown)", "VH": "QVTLRESGPALVKPTQTLTLTCTFSGFSLSTAGMSVGWIRQPPGKALEWLADIWWDDKKHYNPSLKDRLTISKDTSKNQVVLKVTNMDPADTATYYCARDMIFNFYFDVWGQGTTVTVSS", "VL": "DIQMTQSPSTLSASVGDRVTITCSASSRVGYMHWYQQKPGKAPKLLIYDTSKLASGVPSRFSGSGSGTEFTLTISSLQPDDFATYYCFQGSGYPFTFGGGTKVEIK"}}, "key": {"[1]": {"biological_target": "RPM-1 chimeric HMPV/RSV F protein (HMPV F with the grafted RSV site A/II palivizumab/motavizumab epitope) (human metapneumovirus, B2 strain)", "assay": "SPR; BiOptix 404pi; F proteins captured on NiHC1000m chip through their C-terminal His tag to 120 RU; Fab injected at 300 to 0.14 nM, 100 ul/min; 10 mM HEPES pH 7.2, 150 mM NaCl, 0.005% Tween 20, 50 uM EDTA; simple Langmuir model"}, "[2]": {"biological_target": "RPM-1 chimeric HMPV/RSV F protein (HMPV F with the grafted RSV site A/II palivizumab/motavizumab epitope) (human metapneumovirus, B2 strain)", "assay": "SEC; gel filtration of complexes made of RPM-1 and Fab"}}, "data": [{"binder": "B1", "values": [{"measurement": "Kd", "setting": "[1]", "value": 7.11, "unit": "pM"}, {"measurement": "koff", "setting": "[1]", "value": "1.8e-05", "unit": "s⁻¹"}, {"measurement": "kon", "setting": "[1]", "value": "2.41e+06", "unit": "M⁻¹ s⁻¹"}, {"measurement": "t1/2", "setting": "[1]", "value": 657, "unit": "min"}, {"measurement": "stoichiometry N (Fabs per F trimer)", "setting": "[2]", "value": 3}]}]}
